Results reported in US20030099656A1 (published 2003).

Legend:
[1] = target: T1, ClfA on S. aureus strain 203 SAL2 cells (Staphylococcus aureus strain 203 Sal 2); assay: flow cytometry, overnight culture
T1 construct: whole, on cells
Method: (§1) As well, Newman ClfA::emr (ClfA knockout) and NewmanSpa::kan (Protein A knockout) were analyzed in the same manner as specificity controls. Following incubation with antibody, bacterial cells were incubated with Goat-F_{(ab′)2}-Anti-Mouse-F_{(ab′)2}-FITC which served as the detection antibody. […] For each bacterial strain, 10,000 events were collected and measured.

[2] = target: T2, ClfA on S. aureus strain 203 Singapore cells (Staphylococcus aureus strain 203); assay: flow cytometry, overnight culture
T2 construct: whole, on cells
Method: as §1

[3] = target: T3, ClfA on S. aureus strain 67-0 cells (MRSA) (Staphylococcus aureus strain 67-0); assay: flow cytometry, overnight culture
T3 construct: whole, on cells
Method: as §1

[4] = target: T4, ClfA on S. aureus strain 560 SAL 1 cells (Staphylococcus aureus strain 560 Sal 1); assay: flow cytometry, overnight culture
T4 construct: whole, on cells
Method: as §1

[5] = target: T5, ClfA on S. aureus strain 451 SAL4 cells (Staphylococcus aureus strain 451 Sal 4); assay: flow cytometry, overnight culture
T5 construct: whole, on cells
Method: as §1

[6] = target: T6, ClfA on S. aureus strain Newman cells (wild type) (Staphylococcus aureus strain Newman, UniProt Q53653 40-899); assay: flow cytometry, overnight culture
T6 construct: whole, on cells; also called Newman WT; Newman-WT
Method: as §1

[7] = target: T7, ClfA on S. aureus strain 4046 USA cells (Staphylococcus aureus strain 4046); assay: flow cytometry, overnight culture
T7 construct: whole, on cells
Method: as §1

[8] = target: T8, ClfA on S. aureus strain 206 SAL5 cells (Staphylococcus aureus strain 206 Sal5); assay: flow cytometry, overnight culture
T8 construct: whole, on cells
Method: as §1

[9] = target: T9, ClfA on S. aureus strain 397 SAL6 cells (Staphylococcus aureus strain 397 Sal 6); assay: flow cytometry, overnight culture
T9 construct: whole, on cells
Method: as §1

[10] = target: T10, ClfA on S. aureus strain 189 Japan cells (Staphylococcus aureus strain 189); assay: flow cytometry, overnight culture
T10 construct: whole, on cells
Method: as §1

[11] = target: T11, ClfA on S. aureus strain 49 Europe cells (Staphylococcus aureus strain 49); assay: flow cytometry, overnight culture
T11 construct: whole, on cells
Method: as §1

[12] = target: T12, SdrG (UniProt Q9KI13 50-597); assay: ELISA, SdrG
T12 sequence (looked up): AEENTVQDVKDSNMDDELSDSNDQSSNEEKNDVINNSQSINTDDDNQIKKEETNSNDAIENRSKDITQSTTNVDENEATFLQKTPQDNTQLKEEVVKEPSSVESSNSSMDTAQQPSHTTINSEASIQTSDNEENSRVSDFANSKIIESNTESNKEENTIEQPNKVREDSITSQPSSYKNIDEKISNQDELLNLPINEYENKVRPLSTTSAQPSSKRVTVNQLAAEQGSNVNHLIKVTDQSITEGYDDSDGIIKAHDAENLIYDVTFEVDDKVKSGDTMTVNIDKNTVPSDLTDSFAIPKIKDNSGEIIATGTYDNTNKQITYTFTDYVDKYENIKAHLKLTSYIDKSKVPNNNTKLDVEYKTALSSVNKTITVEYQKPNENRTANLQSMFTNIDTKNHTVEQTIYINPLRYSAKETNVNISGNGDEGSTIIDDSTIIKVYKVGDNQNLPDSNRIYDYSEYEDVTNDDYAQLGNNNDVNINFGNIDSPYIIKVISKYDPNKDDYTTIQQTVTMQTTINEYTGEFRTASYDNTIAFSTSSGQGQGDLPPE

[13] = target: T1, ClfA on S. aureus strain 203 SAL2 cells; assay: flow cytometry, 3 hr culture
Method: as §1

[14] = target: T2, ClfA on S. aureus strain 203 Singapore …; assay: flow cytometry, 3 hr culture
Method: as §1

[15] = target: T3, ClfA on S. aureus strain 67-0 cells …; assay: flow cytometry, 3 hr culture
Method: as §1

[16] = target: T4, ClfA on S. aureus strain 560 SAL 1 cells; assay: flow cytometry, 3 hr culture
Method: as §1

[17] = target: T5, ClfA on S. aureus strain 451 SAL4 cells; assay: flow cytometry, 3 hr culture
Method: as §1

[18] = target: T6, ClfA on S. aureus strain Newman cells …; assay: flow cytometry, 3 hr culture
Method: as §1

[19] = target: T7, ClfA on S. aureus strain 4046 USA cells; assay: flow cytometry, 3 hr culture
Method: as §1

[20] = target: T8, ClfA on S. aureus strain 206 SAL5 cells; assay: flow cytometry, 3 hr culture
Method: as §1

[21] = target: T9, ClfA on S. aureus strain 397 SAL6 cells; assay: flow cytometry, 3 hr culture
Method: as §1

[22] = target: T10, ClfA on S. aureus strain 189 Japan cells; assay: flow cytometry, 3 hr culture
Method: as §1

[23] = target: T11, ClfA on S. aureus strain 49 Europe cells; assay: flow cytometry, 3 hr culture
Method: as §1

[24] = target: T6, ClfA on S. aureus strain Newman cells …; assay: flow cytometry on S. aureus cells (FIG. 3)

T6 sequence (Q53653 40-899): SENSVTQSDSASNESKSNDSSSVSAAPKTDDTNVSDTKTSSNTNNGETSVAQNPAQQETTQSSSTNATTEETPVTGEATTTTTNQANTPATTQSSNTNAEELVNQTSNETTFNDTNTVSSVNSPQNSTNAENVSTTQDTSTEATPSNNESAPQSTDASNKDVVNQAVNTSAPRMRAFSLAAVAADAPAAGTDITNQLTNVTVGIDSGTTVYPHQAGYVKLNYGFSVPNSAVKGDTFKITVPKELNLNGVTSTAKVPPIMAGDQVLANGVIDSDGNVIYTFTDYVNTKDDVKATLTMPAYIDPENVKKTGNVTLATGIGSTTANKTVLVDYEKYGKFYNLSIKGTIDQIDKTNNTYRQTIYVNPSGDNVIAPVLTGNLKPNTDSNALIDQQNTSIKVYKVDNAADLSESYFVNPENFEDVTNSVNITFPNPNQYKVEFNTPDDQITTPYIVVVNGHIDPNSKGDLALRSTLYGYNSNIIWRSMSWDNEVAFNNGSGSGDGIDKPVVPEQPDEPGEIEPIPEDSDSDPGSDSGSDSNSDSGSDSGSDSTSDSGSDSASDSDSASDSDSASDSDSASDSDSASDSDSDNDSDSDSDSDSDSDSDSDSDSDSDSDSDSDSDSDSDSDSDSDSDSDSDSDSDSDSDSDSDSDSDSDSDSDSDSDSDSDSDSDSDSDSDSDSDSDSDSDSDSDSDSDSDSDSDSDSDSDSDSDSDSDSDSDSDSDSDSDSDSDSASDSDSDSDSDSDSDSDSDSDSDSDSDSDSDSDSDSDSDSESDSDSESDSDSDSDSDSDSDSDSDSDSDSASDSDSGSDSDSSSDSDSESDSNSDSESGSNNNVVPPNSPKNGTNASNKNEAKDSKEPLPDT

B1: ClfA monoclonal antibody 12-9 (antibody, V domains shown)
VH: QVQLKESGPGLVAPSQSLSITCAISGFSLSRYSVHWVRQPPGKGLEWLGMIWGGGNTDYNSALKSRLSISKDNSKSQVFLKMNSLQTDDTAMYYCARKGEFYYGYDGFVYWGQGTLVTVSA
VL: NIMMTQSPSSLAVSAGEKVTMSCKSSQSVLYSSNQKNYLAWYQQKPGQSPKLLIYWASTRESGVPDRFTGSGSGTDFTLTISSVQAEDLAVYYCHQYLSSYTFGGGTKLEIK
notes: also called F12-9; Mab 12-9
What does the source list for B1?
Fluorescence Intensity (Geometric Mean) [1]: 40.4; Fluorescence Intensity (Geometric Mean) [2]: 15.4; Fluorescence Intensity (Geometric Mean) [3]: 27.6; Fluorescence Intensity (Geometric Mean) [4]: 36.1; Fluorescence Intensity (Geometric Mean) [5]: 12.9; Fluorescence Intensity (Geometric Mean) [6]: 44.3; Fluorescence Intensity (Geometric Mean) [7]: 23.5; Fluorescence Intensity (Geometric Mean) [8]: 33.5; Fluorescence Intensity (Geometric Mean) [9]: 62.1; Fluorescence Intensity (Geometric Mean) [10]: 15.7; Fluorescence Intensity (Geometric Mean) [11]: 11.3; binding result [12]: no binding; Fluorescence Intensity (Geometric Mean) [13]: 16.1; Fluorescence Intensity (Geometric Mean) [14]: 22.1; Fluorescence Intensity (Geometric Mean) [15]: 11.2; Fluorescence Intensity (Geometric Mean) [16]: 28.8; Fluorescence Intensity (Geometric Mean) [17]: 1.1; Fluorescence Intensity (Geometric Mean) [18]: 30.8; Fluorescence Intensity (Geometric Mean) [19]: 27.7; Fluorescence Intensity (Geometric Mean) [20]: 8.8; Fluorescence Intensity (Geometric Mean) [21]: 28.9; Fluorescence Intensity (Geometric Mean) [22]: 11; Fluorescence Intensity (Geometric Mean) [23]: 7.3

B2: Chimeric monoclonal antibody 12-9 (antibody, V domains shown)
VH: QVQLKESGPGLVAPSQSLSITCAISGFSLSRYSVHWVRQPPGKGLEWLGMIWGGGNTDYNSALKSRLSISKDNSKSQVFLKMNSLQTDDTAMYYCARKGEFYYGYDGFVYWGQGTLVTVSA
VL: NIMMTQSPSSLAVSAGEKVTMSCKSSQSVLYSSNQKNYLAWYQQKPGQSPKLLIYWASTRESGVPDRFTGSGSGTDFTLTISSVQAEDLAVYYCHQYLSSYTFGGGTKLEIK
notes: also called Chimeric 12-9; recombinant chimeric 12-9
Does B2 bind [24]?
Result: binds
